Molecular target: T1, GST-PKM2 (GST fusion PKM2) (UniProt P14618 1-531)
T1 construct: Pyruvate kinase M2 (PKM2); also called recombinant GST- PKM2; source: E. coli BL21 (DE3), purified (Glutathione-Sepharose 4B)
Experiment: pull-down; GST-PKM2 on glutathione-sepharose beads incubated with His-HDAC8 at 4 °C (overnight in the methods, 3 h in the legend); washed 5 times with PBST; SDS-PAGE and Coomassie Blue staining; GST-vector as control
Conditions: both partners purified

T1 sequence (P14618 whole entry, the tested form may be a part): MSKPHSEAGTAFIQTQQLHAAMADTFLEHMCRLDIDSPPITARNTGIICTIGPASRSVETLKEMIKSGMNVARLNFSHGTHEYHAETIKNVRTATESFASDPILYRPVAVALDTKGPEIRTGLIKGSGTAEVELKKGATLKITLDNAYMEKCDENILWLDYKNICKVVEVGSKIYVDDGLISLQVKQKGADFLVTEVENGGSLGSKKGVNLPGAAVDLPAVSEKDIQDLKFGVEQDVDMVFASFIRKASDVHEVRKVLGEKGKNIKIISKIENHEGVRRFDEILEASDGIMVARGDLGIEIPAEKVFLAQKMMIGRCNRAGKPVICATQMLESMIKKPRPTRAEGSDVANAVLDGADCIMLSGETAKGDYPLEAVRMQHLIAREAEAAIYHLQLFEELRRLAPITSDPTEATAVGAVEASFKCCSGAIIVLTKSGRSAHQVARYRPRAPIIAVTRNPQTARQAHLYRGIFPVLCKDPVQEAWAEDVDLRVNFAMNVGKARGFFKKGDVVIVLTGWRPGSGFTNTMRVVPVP

binding result: binds
B1: His-HDAC8 (His fusion HDAC8) (enzyme, UniProt Q9BY41 1-377, looked up)
chain: MEEPEEPADSGQSLVPVYIYSPEYVSMCDSLAKIPKRASMVHSLIEAYALHKQMRIVKPKVASMEEMATFHTDAYLQHLQKVSQEGDDDHPDSIEYGLGYDCPATEGIFDYAAAIGGATITAAQCLIDGMCKVAINWSGGWHHAKKDEASGFCYLNDAVLGILRLRRKFERILYVDLDLHHGDGVEDAFSFTSKVMTVSLHKFSPGFFPGTGDVSDVGLGKGRYYSVNVPIQDGIQDEKYYQICESVLKEVYQAFNPKAVVLQLGADTIAGDPMCSFNMTPVGIGKCLKYILQWQLATLILGGGGYNLANTARCWTYLTGVILGKTLSSEIPDHEFFTAYGPDYVLEITPSCRPDRNEPHRIQQILNYIKGNLKHVV
notes: Histone deacetylase 8 (HDAC8)

Source: publication PMC7719180, “HDAC8-dependent deacetylation of PKM2 directs nuclear localization and glycolysis to promote proliferation in hepatocellular carcinoma” (Cell Death & Disease, 2020)
